# Assay results published in the DeepSol protein solubility set.
# Assay: soluble on expression in E. coli; label from the status in PepcDB or PDB records
row,Sequence,soluble on expression in E. coli
1,MCMVHTYLGETINFHITYKKKKSVRLFVDSYGNVEVQAPKGTPVEYLIQLLEEKWDWIQTTRKEMAERARGPQEKDYDQGEGFLYLGNTYPIQISQDANITQDNAVFEKDRLHIYVKELKDEKIQQALKRFYYKQKSLVEKSIKAHQSNFKTKPRSIRITDSSRTWGTCDSNLQLTFNWKLAMAPQRVIDYVVVHEMCHMVHLNHDRSFWRLVGKIMPDYKEMENWLALSSWKMTVMAGDPLEHHHHHH,soluble
2,MCRLAILALFSVAMVSVYGQDTPPPFLRNATPDQLKSFQQMIQSNGHLTETAMGAKIQEWVDQQGGKVAADWKDFQEFIKGQQGKSEAAHQTAISSFSPEAKKADAELTAISNDASLSIKAKGDKIQAYLTTLPANVKAELEKAQGQ,not soluble
3,MCSKQSANQQISYRQTAEATLDKGMDNQPEAPYWFPKQLLKWQLSKDKAAKYNTASVPLAKRIDKWQLPTVNKTQDPKMKVVALSIMNSSTSGNAPRGINTFDANVFSNWQYIDQLVYWGGSAGEGLIVPPTADVIDSAHKNGVPVLGTVFFPQVVSGGKLKWLNDFLKQDADGHFPMADKLVAVAKAYGFDGWFINQETDPEVKSFDSASTGKTATSSTSNGLSKKHAQLMQQLIKEYKQKAGSKLDLMWYDSMTKDGKMDWQNALTKENQSYLVDANMKPVADSMFLNFWWTKKRLASQELLKKSHERAEKLGISPYNLFAGIDVQADGTATPVRWNLFANKQHVPYTSLGLYAPDWTHASSDTVDEFQAKEGALWVNDQNDPSRSIPSTTSTHWPGVSTYAVEQSAITKQPFVTNFSLGNGYNYFIKLEHHHHHH,not soluble
4,MCSVKPKYISLPEQNSLCSLPNSGCCQVEVKIGRSKWEQQKAILVKVDGEPAGKIFIYSQPLIGQMYPLHELKSMGVICEKAGDFLVNLVTERGLKLTFKPIGSTANCFVTALVSGNFTSLTHETHIKTPLQNQEATTSPTIESDLTDKPDTNVYTGSREGYVAPSEKGSNEKKKEVVPNGGDKSVENKKGSDRNVKKTPSKTVTKPLLSESRKRKEAKTLATTQSQDLPAPTKDEPERTNSEPDNGEQEKIKKEKKKGTETSLKDGKNKLNEKIVKPAPTTTPDAGNGGLTPGKEDNKKTVTTSSVEIEVPEKKKAVENAGIIKIS,not soluble
5,MCTGFTIQTLNNQVLLGRTMDYDYPLDGSPAVTPRNYRWKSRTGTTGQTQYGFIGTGTDMEGFIYGDGVNEHGVAISTQYFRGYSSYGSTHKADAMNITQNEIVTWILVYTTSIEDMKQQASQIHVVAVYLNDIGEVPPLHYHVSDATGHTVEVSFKEGEVVIKDNPIGVLTNHPDLNWHYSNLRQYINISPYPATANLLEGVTIEPLGNEAGTFGLPGGFTSTERFVRMTFMKANIAQNNDKEMDLMNAFYLLDAVNIPIGIVRPHDADNHYTMYQTVINLTTRTLYIKYYGSNELVALKLTDDLINRKDMTIFKPEKHITIRKLNDNQ,not soluble
6,MDADMDYERPNVETIKCVVVGDNAVGKTRLICARACNTTLTQYQLLATHVPTVWAIDQYRVCQEVLERSRDVVDEVSVSLRLWDTFGDHHKDRRFAYGRSDVVVLCFSIANPNSLNHVKSMWYPEIKHFCPRTPVILVGCQLDLRYADLEAVNRARRPLARPIKRGDILPPEKGREVAKELGLPYYETSVFDQFGIKDVFDNAIRAALISRRHLQFWKSHLKKVQKPLLQAPFLPPKAPPPVIKIPECPSMGTNEAACLLDNPLCADVLFILQDQEHIFAHRIYLATSSSKFYDLFLMECEESPNGSEGACEKEKQSRDFQGRILSVDPEEEREEGPPRIPQADQWKSSNKSLVEALGLEAEGAVPETQTLTGWSKGFIGMHREMQVNPISKRMGPMTVVRMDASVQPGPFRTLLQFLYTGQLDEKEKDLVGLAQIAEVLEMFDLRMMVENIMNKEAFMNQEITKAFHVRKANRIKECLSKGTFSDVTFKLDDGAISAHKPLLICSCEWMAAMFGGSFVESANSEVYLPNINKISMQAVLDYLYTKQLSPNLDLDPLELIALANRFCLPHLVALAEQHAVQELTKAATSGVGIDGEVLSYLELAQFHNAHQLAAWCLHHICTNYNSVCSKFRKEIKSKSADNQEYFERHRWPPVWYLKEEDHYQRVKREREKEDIALNKHRSRRKWCFWNSSPAVA,soluble
7,MDAELFPRSRAQVAPDAVHVPDWADAGRQRRFLAACRDWARPPAGLRTVHTPGGGTMTSRQVCLGWHWYPYGYARTVVDGDGAPVKPLPDWLAELGRDAVSDALGPQAVPPVPYDIALINFYGADARMGMHRDSDEKSGAPVVSLSVGDTCVFRFGNARTRTRPYTDVELRSGDLFVFGGASRLAYHGVPRVYADTAPPELGLVGRLNITLRVSGFQDPSGE,not soluble
8,MDAENRVIINVGGIRHETYKATLKKIPATRLSRLTEGMLNYDPVLNEYFFDRHPGVFAQIINYYRSGKLHYPTDVCGPLFEEELEFWGLDSNQVEPCCWMTYTAHRDTQETLAVL,soluble
9,MDAGDASRLGESLDAVSAAFQSRVMELQELVLARNMYPATAIPDLAAVDVSLTAMEAQLQAVRRRLQEEREAFPKAKKLVQQSLKQQRRLQLMLANMPTGMREDVFATPLEHNSSMMFPESLNFSSAVPEVRDHDLKIKEEPTAPPKKKGRGPAPRWYISTEELDSLSSYMRGRLTLEKVNIAINEVASYADGNAHLVACPKKKLSEDTWEKALELRDIAARESVKGRHFFLETDIKGPGLKLDTTGKAILTVRASTIMLYMLPLKLPYWIE,soluble
10,MDANEKKEVIKKRFQEIAMSGGTCCSGGGCCGDSSSSDISRAIGYSEADIEAVPDANMGLGCGNPASIAELKPGDIVLDLGSGAGFDCFLAAQKVGNSGKVIGVDMTPEMVEKVQANARKYGYSNVEFRQGDIEALPVEDSSVDVIISNCVINLAPDKEKVFREAFRVLKLGGRLYISDLVLLDELPEDLKNDRDLLAGCVAGAVLKEEYLKLLKRAGFSVEILAEDPDISKSQYKGLPVESLKLKAWVLEHHHHHH,soluble
11,MDAVQDPAAGSLSRSRIVPPQVPAEYSLRPAIRNLLDRNPHSRVLMFSAPAGFGKTCALAALARERTVADQAVAWLSLAEEDDDPARFCRQLIEALGEAVPQLGDDAQTYLQNTMRVPVVAVIESLLGDLDRYARPLLLVLDDLHLVSNPDIFTGLNRLVQYAPPGLVLALGTRSQPALSLATWRAKGLLLEIGLEELRLGFEETREYLERSGLYLDEPCLKALYGQTEGWVVGVHLVSLWLRQQPQVQEMALLDGDKQAVSAYLLAAVFERLPGDLQEALLALGVASQLSGDLANALTGRQ,not soluble
12,MDCQIGSRRCATWDEIEDAPQTKRLREDKVQENVPQQSVQPAPPPPAAQQAPAPAEQPKFYISAPIQGFTVNNQGGCRYLFF,not soluble
13,MDDSTLRRKYPHHEWHAVNEGDSGAFVYQLTGGPEPQPELYAKIAPRAPENSAFDLSGEADRLEWLHRHGIPVPRVVERGADDTAAWLVTEAVPGVAAAEEWPEHQRFAVVEAMAELARALHELPVEDCPFDRRLDAAVAEARRNVAEGLVDLDDLQEERAGWTGDQLLAELDRTRPEKEDLVVCHGDLCPNNVLLDPGTCRVTGVIDVGRLGVADRHADIALAARELEIDEDPWFGPAYAERFLERYGAHRVDKEKLAFYQLLDEFF,not soluble
14,MDDVLRRNPLFAALDDEQSAELRASMSEVTLARGDTLFHEGDPGDRLYVVTEGKVKLHRTSPDGRENMLAVVGPSELIGELSLFDPGPRTATGTALTEVKLLALGHGDLQPWLNVRPEVATALLRAVARRLRKTNDAMSDLVFSD,soluble
15,MDDYVPIPFTLLKLPQKSIDVVLRRMCIEALVELSFTSKAAMQQTKHLGIKTERFIIAINSNEILIDVSGCRDFRFYTFECSTPSHHTVQKPIRVHVGFRGERWETPFFGVRQFLNHLMEIFHQTKLDSLHISTADPECSNELKGMEFGWLSMMSMTSDNNSSQDEDALRQFSGKTDSICLNRNPFSIEPSKQMQMILTRNMNVVSTKCDLNDVFVTNARSFTAFLKIEDVNIFLKHWMHRSDRKLKSAWFDLDAFRWDVEDVLEPLFKGIAYHVAPADREFIVHLPKKLSGCGDYRVIGGYDVRRNDGMTATIIVADRANVFLKMFFWI,not soluble
16,MDEDIICVGCGAILQSDDPKKAGYLPKSALDKAKREENTDVYCQRCFRLRHYNEIMPVDLNNDDFLALLNSLSEKKALVVNVVDLFDFSNSLLSSLKRFVGNNDFILVGNKFDLFPKNSKQSKIKDWMRQEANRMGLYPKDIFLVSAKKKVNLESLISYINDHSQDKDVYFVGTTNVGKSTLINAIIDMMGDIQDLITTSRFPGTTLDQIEIPLENGHFLIDTPGIMTDNQLATHLNAKDLELVSPKKPLKPATYQLLPGNTLFLAGLGRIDFLKGESTSFTVYVARDMYVHRTKTANADAFYEKHKGELLTPPSADDQMAPLKGKEFRTDYKSDLLFGGIGFVTVPKGCVVKTYTPDGIGLGIRRALILEHHHHHH,soluble
17,MDEGDKKSPISQVHEIGIKRNMTVHFKVLREEGPAHMKNFITACIVGSIVTEGEGNGKKVSKKRAAEKMLVELQKL,soluble
18,MDELMFFRGMAPDPTSYDRVFKFLIFGGKSVGKKTLLRSFCTEGDNESIWTSLTVDDEKVLIEATVSQKWEEGMSKEHDAIALVFSTTDVYSFEYTLELYNEIQKSTERIPLVFIENKIDIVEDSQMDKGLVEGEMRKKHKRLYRVSALKEFNVMHPFAYLIEKLTRQKKDLNANESVSENSLRL,not soluble
19,MDERDALRISREIAGEVRKAIASMPLRERVKDVGMGKDGTPTKAADRVAEDAALEILRKERVTVVTEESGVLGEGDVFVALDPLDGTFNATRGIPVYSVSLCFSYSDKLKDAFFGYVYNLATGDEYYADSSGAYRNGERIEVSDAEELYCNAIIYYPDRKFPFKRMRIFGSAATELCFFADGSFDCFLDIRPGKMLRIYDAAAGVFIAEKAGGKVTELDGESLGNKKFDMQERLNIVAANEKLHPKLLELIK,soluble
20,MDERPVLFFDSGIGGLTVLREVRSLIPEKQFIYVADDVGFPYGNWEENVLKNRILKIFTNLLTVYNPALCVIACNTVSTLMIADLRERFPHILFVGTVPAIKLAAEQTKSGFISVLATPGTVKRTYTHELINSFAGQCHVQLVGSEKLAGFAENYLRGQSVDLEELRNEILPCFVKKNGKHTDIIVLACTHYPFLLHFFREQALWHVQWIDPSKAIAKRTRSLLPQRIHHQTVKKYEDFALFTSQNITSSTKRLLKEFSLNITKGVDFKV,not soluble
21,MDFHIRKATNSDAEAIQHVATTSWHHTYQDLIPSDVQDDFLKRFYNVETLHNRISATPFAVLEQADKVIGFANFIELEKGKSELAAFYLLPEVTQRGLGTELLEVGMTLFHVPLPMFVNVEKGNETAIHFYKAKGFVQVEEFTEDFYGYPLETIRFNLNHHAFEEE,not soluble
22,MDFKQHIAIVPDYPKEGIVFKDITPLMNDGKAYKAATDAIVEYAKERDIDLVVGPEARGFIIGCPVSYALEVGFAPVRKLGKLPREVITVDYGKEYGKDVLTIHKDAIKPGQRVLITDDLLATGGTIEATIKLVEELGGVVAGIAFLVELTYLDGRKMLDGYDVLVLEKY,not soluble
23,MDFVHCNKCFNRKPPDGFFISSCFHIFCTKCAKADLAVCLICKKNVRLVRLDGNISSGIKIYFADPIKMVADSLAKIQKKIDFQQSTRDHLVKYLTKEKEKKRQMEVYFRTKGQEFDSQRKKLAEATAWIQMAEKKLQASEEERVKAEREIEECQAKLKSMTNLMSADTLGMNSQTPFPFSLAESQETAPSLVESSANSTFNMVSPLVSSPASSPNSINYNSFFENGSRTRPESLNEEAMFNTMSSGQSANANTSESSAFSVAFNNIFTPSRNNMGDSSMINKTTANQTIMDKTSMSLENWRQNRANSFGVHDISKRDSSLPTGGGSAIRVHHFKQNSRITPIAQNRRSAAGFDRQQIQEMRRISSQPGYLAQRKPINGRSFIGPAD,not soluble
